Measured values published in publication PMC11347675.

How the values were obtained:
[1] = target: 1059-SOSIP (soluble SOSIP Env trimer of the transmitted/founder HIV-1 strain 1059) (HIV-1 (strain 1059, transmitted/founder)); assay: cryo-EM structure; unliganded SOSIP trimers purified by GNL/SEC; 2.16 mg/mL 1059-SOSIP, 3.64 mg/mL BG505-SOSIP; 0.085 mM DDM before vitrification; refined with C1 symmetry
[2] = target: BG505-SOSIP (soluble SOSIP Env trimer of HIV-1 strain BG505) (HIV-1 (strain BG505)) (UniProt Q2N0S6); assay: as above

| Substance | stoichiometry N [1] | stoichiometry N [2] |
| --- | --- | --- |
| 1059-SOSIP (soluble SOSIP Env trimer of the transmitted/founder HIV-1 strain 1059) (complex) | 3 |  |
| BG505-SOSIP (soluble SOSIP Env trimer of HIV-1 strain BG505) (from UniProt Q2N0S6 1-860; Q2N0S6 1-860) (complex) |  | 3 |
